In test [1] the target is T1, gD epitope-tagged LgR5 22-123 (amino acids 22-123 of SEQ ID NO: 67) with a C-terminal GPI anchor on … (human, UniProt O75473 22-123, C-terminal GPI anchor).
T1 sequence: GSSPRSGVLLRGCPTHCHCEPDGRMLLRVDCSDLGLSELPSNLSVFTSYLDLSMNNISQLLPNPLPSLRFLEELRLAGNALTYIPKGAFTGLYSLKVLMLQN
Briefly: FACS on transiently transfected 293 cells.

The target in test [2] is T2, gD epitope-tagged LgR5 424-907 (amino acids 424-907 of SEQ ID NO: 67) on transiently transfected 293 cells (human, UniProt O75473 424-907).
T2 sequence: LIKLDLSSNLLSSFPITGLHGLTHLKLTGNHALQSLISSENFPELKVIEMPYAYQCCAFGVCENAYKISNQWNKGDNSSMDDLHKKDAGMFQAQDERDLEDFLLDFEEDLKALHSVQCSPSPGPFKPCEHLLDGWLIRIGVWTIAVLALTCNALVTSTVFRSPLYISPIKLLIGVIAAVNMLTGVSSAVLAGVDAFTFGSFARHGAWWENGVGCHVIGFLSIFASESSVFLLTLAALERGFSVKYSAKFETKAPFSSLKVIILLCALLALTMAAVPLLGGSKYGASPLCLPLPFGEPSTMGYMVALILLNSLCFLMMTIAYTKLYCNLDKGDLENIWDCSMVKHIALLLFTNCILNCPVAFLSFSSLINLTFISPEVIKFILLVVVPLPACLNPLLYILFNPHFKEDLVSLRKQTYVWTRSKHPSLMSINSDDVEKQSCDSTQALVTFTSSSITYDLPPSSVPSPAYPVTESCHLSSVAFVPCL
Briefly: FACS on transiently transfected 293 cells.

Test [3] concerns the target T3, gD epitope-tagged LgR5 22-323 (amino acids 22-323 of SEQ ID NO: 67) with a C-terminal GPI anchor on … (human, UniProt O75473 22-323, C-terminal GPI anchor).
T3 sequence: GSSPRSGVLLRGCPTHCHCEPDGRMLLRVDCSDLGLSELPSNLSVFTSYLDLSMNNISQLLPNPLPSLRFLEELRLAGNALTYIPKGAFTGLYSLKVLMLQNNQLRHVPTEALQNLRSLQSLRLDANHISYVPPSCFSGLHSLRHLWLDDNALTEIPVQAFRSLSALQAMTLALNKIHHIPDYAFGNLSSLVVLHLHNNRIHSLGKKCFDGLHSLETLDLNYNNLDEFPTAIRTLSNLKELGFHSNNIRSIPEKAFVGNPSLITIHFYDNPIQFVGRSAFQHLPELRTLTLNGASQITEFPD
The test can be described thus: FACS on transiently transfected 293 cells.

The target in test [4] is T4, human LgR5 ECD (amino acids 22-557 fused to His-Fc expressed in a baculovirus system, or amino acids 22-558 … (human, UniProt O75473 22-557)).
T4 construct: not shown: C-terminal His-tagged Fc
T4 sequence: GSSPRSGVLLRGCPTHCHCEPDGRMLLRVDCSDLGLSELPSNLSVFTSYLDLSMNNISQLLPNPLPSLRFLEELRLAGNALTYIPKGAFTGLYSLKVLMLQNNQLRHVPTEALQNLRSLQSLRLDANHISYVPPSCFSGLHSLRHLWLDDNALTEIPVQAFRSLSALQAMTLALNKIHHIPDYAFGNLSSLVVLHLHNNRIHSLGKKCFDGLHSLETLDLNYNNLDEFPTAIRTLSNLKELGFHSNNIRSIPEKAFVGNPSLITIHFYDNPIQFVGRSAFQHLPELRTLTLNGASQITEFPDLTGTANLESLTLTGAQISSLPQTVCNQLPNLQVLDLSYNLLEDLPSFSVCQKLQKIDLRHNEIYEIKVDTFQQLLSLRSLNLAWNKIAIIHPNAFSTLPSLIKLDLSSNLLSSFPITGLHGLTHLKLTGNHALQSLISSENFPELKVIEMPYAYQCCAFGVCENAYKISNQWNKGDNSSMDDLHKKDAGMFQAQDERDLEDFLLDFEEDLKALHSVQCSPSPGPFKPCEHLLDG
The test can be described thus: SPR (BIAcore-3000), antibody captured by anti-human Fc, LgR5 ECD-Fc injected.

Test [5] concerns the target T5, gD epitope-tagged mouse LgR5 expressed on stably transfected 293 cells (mouse, UniProt Q9Z1P4 22-907).
T5 construct: also called gD-tagged mouse LgR5
T5 sequence: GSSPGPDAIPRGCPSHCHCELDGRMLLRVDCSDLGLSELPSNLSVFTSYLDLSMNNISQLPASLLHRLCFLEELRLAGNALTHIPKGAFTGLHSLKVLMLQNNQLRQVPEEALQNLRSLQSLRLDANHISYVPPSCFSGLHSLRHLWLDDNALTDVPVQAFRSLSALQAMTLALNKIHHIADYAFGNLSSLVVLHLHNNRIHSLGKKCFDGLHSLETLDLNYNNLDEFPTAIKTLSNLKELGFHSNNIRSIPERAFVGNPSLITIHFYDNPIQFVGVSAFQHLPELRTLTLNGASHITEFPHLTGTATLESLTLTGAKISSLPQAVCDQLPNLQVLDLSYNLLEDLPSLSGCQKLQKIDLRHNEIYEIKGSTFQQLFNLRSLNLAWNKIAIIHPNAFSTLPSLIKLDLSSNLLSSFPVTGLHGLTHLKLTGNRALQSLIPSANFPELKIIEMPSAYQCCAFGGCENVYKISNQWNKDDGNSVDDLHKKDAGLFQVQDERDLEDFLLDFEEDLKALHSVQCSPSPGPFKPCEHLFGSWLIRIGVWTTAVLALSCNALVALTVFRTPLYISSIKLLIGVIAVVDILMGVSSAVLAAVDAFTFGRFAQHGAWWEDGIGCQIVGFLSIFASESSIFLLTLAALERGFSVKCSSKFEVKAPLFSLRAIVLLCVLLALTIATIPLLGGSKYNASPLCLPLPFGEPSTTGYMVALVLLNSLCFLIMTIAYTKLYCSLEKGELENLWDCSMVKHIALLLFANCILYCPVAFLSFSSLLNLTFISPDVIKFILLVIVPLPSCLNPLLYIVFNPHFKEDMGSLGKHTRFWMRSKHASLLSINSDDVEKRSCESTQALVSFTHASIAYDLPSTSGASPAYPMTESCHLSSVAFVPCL
The test can be described thus: FACS on 293 cells stably transfected with gD epitope-tagged LgR5, 10 ug/ml antibody, R-Phycoerythrin goat anti-human detection. The method, then:
Monoclonal antibodies were tested to determine if they cross-react with LgR5 from species other than human. […] Residues that are identical among all four species are indicated by asterisks (*). […] YW353 antibody binds human and cynomolgus monkey LgR5, but not rat or mouse LgR5. Ch8E11 and hu8E11.v2 antibodies bind all four species of LgR5, although binding to rat LgR5 is not as strong as binding to human, cynomolgus monkey, or mouse LgR5. 2H6 antibody binds to human and mouse LgR5, and was not tested for binding to cynomolgus monkey or rat LgR5.

The values that follow come from patent publication US20130336885A1 (Genentech, published 2013).

B1: monoclonal antibody 3G12 (antibody, V domains shown)
VH: QVQLQQPGAEMVKPGASVKLSCKASVDTFNSYWMHWVKQRPGQGLEWIGEINPSNGRTNYIEKFKNRATVTVDKSSSTAFMQLSSLTSEDSAVYYCATGWYFDVWGAGTTVTVSS
VL: DVVMTQTPLSLPVSLGDQASISCRSSQSLVHSNGNTYLQWYLQKPGQSPKLLIYKVSNRFSGVPDRFSGSGSGTDFTLKISRVEAEDLGIYFCSQSTHFPYTFGGGTKLEIKR
notes: The variable domains are the same in both forms; also called m3G12; mu3G12
By Kd is commonly meant the constant that tells how readily two partners part at equilibrium. Higher therefore signals lower affinity. Consider B1, for which the binding result was “no binding (tested: 10 µg/ml)” in test [1], “no binding (tested: 10 µg/ml)” in test [2], “no binding (tested: 10 µg/ml)” in test [3] and “binds” in test [5]. Further, the Kd in test [4] was found to be 72 nM.

B2: monoclonal antibody 2H6 (antibody, V domains shown)
VH: EVQLQQSGPELVKPGTSMKISCKASGYSFTGYTMNWVKQSHKNGLEWIGLINCYNGGTNYNQKFKGKATLTVDKSSSTAFMELLSLTSEDSAVYYCARGGSTMITPRFAYWGQGTLVTVSS
VL: DIVMTQSPSSLTVTAGEKVTMSCKSSQSLLNSGNQKNYLTWFQQKPGQPPKLLIYWASTRESGVPDRFTGSGSGTDFTLTISNVQAEDLAVYYCQNDYSFPFTFGQGTKVEIKR
notes: The variable domains are the same in both forms; also called m2H6; mu2H6
For B2, the binding result was “no binding (tested: 10 µg/ml)” in test [1], “no binding (tested: 10 µg/ml)” in test [2], “no binding (tested: 10 µg/ml)” in test [3] and “binds” in test [5]. The Kd in test [4] stood at 208 nM.
